Measurements as given in the supplement of paper PMC10567573.

B1: PDLIM4 (parent)
chain: FLDERLYCESHAKARVKPPEGYDV
B2: TCAP (parent)
chain: YQRVLPLPIFTPAKMGATKEERED

Variants of: B1
Assay: protein stability index of a GFP-peptide fusion (GPS, HEK-293T) (PSI 1-6); higher = more stable
Settings: c terminus: a fixed tail appended
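Also: lentivirally expressed fusions sorted by FACS into six bins by GFP to DsRed ratio, PSI derived from sequencing read proportions per bin multiplied by bin number.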

Protein stability index of substitutions, site by site:
V24: S 2.82
V16: Y 1.51; H 1.92; C 1.43; Q 1.22; R 1.5; W 2.7; D 2.14; I 1.62; A 1.75; G 1.57; T 3.71; S 3.79; N 1.96; M 1.53; K 3.09; P 1.64
G21: M 2.4; P 1.8; L 1.77; H 1.59; D 2.94; C 1.89; W 1.49; I 2.25; F 1.72; V 2.34; S 1.69; A 1.83; N 2.4; T 2.14; K 1.63; Q 2.4; Y 2.09; E 2.62
R15: C 1.97; I 2.03; Q 2.41; K 2.18; G 1.7; A 2.13; M 1.18; L 2.41; D 1.93; Y 1.58; E 1.34; V 1.77; N 1.53; P 1.26; F 2.33; W 3.92; T 1.67; H 3.03
K13: Q 1.61; Y 2.63; H 2.18; G 1.72; L 1.45; C 1.21; P 2.24; D 1.32; I 2.71; N 1.36; M 2.85
D23: N 2.3; T 2.03; Q 2.23; Y 2.45; I 1.81; A 1.48; H 3.11; F 1.73; C 1.65; W 1.81; G 1.14; K 2.53; S 2.85; P 2.3

Variants of: B2
Assay: as above
Settings: c terminus: a fixed tail appended

Protein stability index of substitutions, site by site:
L5: N 1.8; H 2.08; P 2.33; I 1.87; E 2.42; Q 2.03; K 2.13; A 2.05; D 3.06; G 2.89; F 2.52; M 1.9; C 1.86
Q2: G 1.41; R 3.9; F 3.21; M 2.54; L 2.58; K 4.35; N 2.35; W 2.59; V 1.99; Y 2.93; T 1.89; H 2.07; P 1.55; C 1.99; D 3.35; S 1.87; E 3.53; A 1.92; I 2.08
V4: S 1.72; I 2.07; A 1.71; F 2.27; M 1.53; Q 1.9; E 1.93; W 2.55; H 1.37; N 1.83; D 1.52; L 2.18; P 2.67; G 2.82; T 1.88; C 2; Y 2.26; K 1.8; R 1.7
Y1: Q 5.25; A 5.43; G 4.97; N 5.03; D 5.35; L 4.21; F 2.09; E 5.33; P 5.44; V 4.33; S 5.4; K 5.06; H 4.68; T 4.79; R 4.53; M 4.64; I 3.9; C 4.53; W 2.93
R3: I 1.73; M 3.43; K 2.5; P 1.55; H 1.88; N 2.46; E 2.03; V 2.09; W 2.69; S 2.3; Q 2.78; D 2.03; F 2.63; C 3.12; Y 4.55; L 1.86; A 2.15; T 2.05; G 3
